Measured values: article PMC9967328 (International Journal of Molecular Sciences, 2023)

Assays:
[1] = target: the molecule itself; test: SEC; analytical SEC, 10 µM enzyme loaded on Superdex 200 Increase 10/300, 50 mM HEPES pH 8.0, 150 mM NaCl, 20 µM PLP, samples incubated at 25 °C for 20 min; oligomeric state from the elution volume; the limits of K_Dtet-dim are of the step tetramer to dimers
[2] = target: the molecule itself; test: as above; remark: listed apart in the source

B1: human ornithine aminotransferase R154L pathogenic variant (enzyme)
chain: TSVATKKTVQGPPTSDDIFEREYKYGAHNYHPLPVALERGKGIYLWDVEGRKYFDFLSSYSAVNQGHCHPKIVNALKSQVDKLTLTSRAFYNNVLGEYEEYITKLFNYHKVLPMNTGVEAGETACKLALKWGYTVKGIQKYKAKIVFAAGNFWGRTLSAISSSTDPTSYDGFGPFMPGFDIIPYNDLPALERALQDPNVAAFMVEPIQGEAGVVVPDPGYLMGVRELCTRHQVLFIADEIQTGLARTGRWLAVDYENVRPDIVLLGKALSGGLYPVSAVLCDDDIMLTIKPGEHGSTYGGNPLGCRVAIAALEVLEEENLAENADKLGIILRNELMKLPSDVVTAVRGKGLLNAIVIKETKDWDAWKVCLRLRDNGLLAKPTHGDIIRFAPPLVIKEDELRESIEIINKTILSF
modifications: PLP on Lys292 (internal aldimine)
[1]
  stoichiometry N: 2
[2]
  Kd: > 10 µM
